Data published in patent publication US6861578B1, “Method for plant protection against insects or nematodes by transformation with a nucleic acid encoding equistatin” (Plant Research International B.V., priority 1997, dated 2005).
Like-named read-outs stand apart in the source and are kept apart here. Where a SMILES comes first, the peptide text is derived from it. [ ]: non-standard residue; d: D form. The star is where a group is joined. Sta = CC(C)C[C@H](N)[C@@H](O)CC(=O)O; Isovaleryl = CC(C)CC(=O)*

Assays:
[1] = biological target: proteases in extracts of adult western flower thrips (Frankliniella occidentalis); assay: cell-based or functional assay
[2] = system: T1, equistatin, isolated from sea anemone Actinia equina
T1 sequence: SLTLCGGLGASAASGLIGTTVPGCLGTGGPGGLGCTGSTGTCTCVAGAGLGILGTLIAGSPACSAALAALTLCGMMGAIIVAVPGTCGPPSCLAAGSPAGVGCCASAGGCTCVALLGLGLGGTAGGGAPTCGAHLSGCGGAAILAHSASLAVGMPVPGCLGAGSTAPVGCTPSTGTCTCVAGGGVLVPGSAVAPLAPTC

[3] = biological target: proteases in extracts of adult leafminer flies (Liriomyza trifolii); assay: cell-based or functional assay
[4] = biological target: potato protease inhibitor-insensitive cysteine proteases of Colorado potato beetle (Leptinotarsa decemlineata) larval gut extracts; assay: cell-based or functional assay
leafminer proteases = assay: Protease activity of adult leafminer fly extract, FITC-hemoglobin; type: biochemical, Liriomyza trifolii; settings: leafminer pH 3.5; equistatin purified from sea anemone
Experimental: (§1) Adult western flower thrips (Frankliniella occidentalis) and leafmirer flies (Liriomyza trifolii) adult were harvested from a culture maintained on chrysanthemum plants and complete thrips and flies were homogenized in extraction on buffer (200 mM β-alanine-HCl, pH 3.5) in a volume of 5 times the weight of the insects. The buffer pH was at the previously determined pH optimum of protease activity towards hemoglobin. Final instar Colorado potato beetle larvae maintained on potato plants as described in example 5 were checked for gut aspartic protease activity by preparing a total gut extract in pH 3 buffer which is optimal for Colorado potato beetle aspartic proteases (200 mM glycine, pH 3). Guts were homogenized in 100 μl buffer per gut. Third instar western corn rootworm larvae maintained on corn roots were used to remove the guts. Ten guts were homogenized in 100 μl water and spinned twice to remove insoluble material. Two types of buffers were used in the enzymatic assay. One with a pH presumably favoring cysteine proteases (50 mM MES, pH 6.5; 0.6 mg/ml L-cysteine) and one for detecting aspartic proteases (200 mM glycine, pH 3). Supernatants were stored at −20° C.
(§2) 2 μl gut extract was combined with 2 μl inhibitor (2 mM pepstatin in methanol, 4 mM E64 in water, 2 mg/ml recombinant equistatin in water. The concentration of the other proteinaceous inhibitors was not known exactly). Appropriate buffers were added to a final volume of 100 μl. After 15′ preincubation 20 μl substrate (5 mg/ml FITC-hemoglobin) was added and incubated for 30-45 min at 37 C.
(§3) Reaction was stopped by the addition of 100 μl 10% TCA. Tubes were centrifuged and 100 μl supernatant mixed with 100 μl 10 N NaOH was measured on a fluorimeter for the extent of hemoglobin hydrolysis. Measurements were done in duplicate on one (thrips, leafminer and western corn rootworm), or three (Colorado potato beetle) different gut extracts and varied by a maximum of +/−5%.

[5] = system: western corn rootworm cysteine and aspartic protease activity; assay: Protease activity of western corn rootworm larval gut extract, FITC-hemoglobin; type: biochemical, Diabrotica virgifera; settings: recombinant equistatin
Experimental: as §1, §2, §3

[6] = system: Colorado potato beetle proteases; assay: Protease activity of Colorado potato beetle larval gut extract at pH 3, FITC-hemoglobin; type: biochemical, Leptinotarsa decemlineata; parameters: inhibition of total protease activity / increase of inhibition by addition of equistatin to E64 / increase of inhibition by addition of equistatin to pepstatin: concentration or dose not given beside the values
Experimental: as §1, §2, §3

thrips protease activity = assay: Protease activity of adult western flower thrips extract, FITC-hemoglobin; type: biochemical, Frankliniella occidentalis; parameters: inhibition of protease activity: concentration or dose not given beside the values
Experimental: as §1, §2, §3

cysteine proteases = settings: Yamashita and Konagaya (1996); cited from earlier work
cathepsin D [7] = biological target: T2, cathepsin D (Homo sapiens, UniProt P07339); assay: steady state inhibition of cathepsin D hydrolysis of chromophoric substrate
papain [8] = biological target: T3, papain (UniProt P00784 134-345); assay: continuous rate enzyme inhibition assay with papain
T3 construct: also called cysteine proteinase, papain
T3 sequence (looked up): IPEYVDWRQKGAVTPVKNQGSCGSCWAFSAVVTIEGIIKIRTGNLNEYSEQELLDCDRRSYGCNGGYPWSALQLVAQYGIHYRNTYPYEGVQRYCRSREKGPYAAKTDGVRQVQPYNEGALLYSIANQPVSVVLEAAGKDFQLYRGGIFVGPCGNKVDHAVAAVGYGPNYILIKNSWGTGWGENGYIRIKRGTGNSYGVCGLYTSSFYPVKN

cathepsin D [9] = biological target: T2, cathepsin D; assay: steady state inhibition of cathepsin D hydrolysis of chromophoric substrate; remark: listed apart in the source
papain [10] = biological target: T3, papain; assay: continuous rate enzyme inhibition assay with papain; Ki = kd/ka
[11] = system: endoprotease activity of Colorado potato beetle larval gut extracts; assay: Narrow spectrum endoprotease activity of Colorado potato beetle gut extract, Z-Arg-Arg-pNA; type: biochemical, Leptinotarsa decemlineata; settings: excess inhibitor
Excerpt: (§4) Guts of final instar Colorado potato beetle larvae reared on methyl jasmonate induced plants were isolated and extracted essentially as described (Bolter and Jongsma, J. Insect Physiol. 41: 1071-1078). In these gut extracts the proteases that are sensitive to the protease inhibitors of potato are already complexed. The residual protease activity is composed of potato protease-inhibitor-insensitive proteases which were induced in response to the methyl jasmonate induced potato inhibitors. These proteases are the proteases that render the beetle larvae insensitive to protease inhibitor defense of the potato plant. Wle tested a broad range of different cysteisie protease inhibitors for activity specifically against these induced potato protease inhibitor-insensitive cysteine protesses. Nearly all of these inhibitors were purified at the Jozef Stefan Institute in Slovenia. Testing their potential against Colorado potato beetle was done using both general protein substrates (azocasein, table 2) as well as specific synthetic substrates (L-Arg-pNA, table 3; pGlu-Phe-Leu-pNA, table 4; Z-Phe-Arg-pNA, table 5; Z-Arg-Arg-pNA, table 6). In specific cases inhibitors were tested at two concentrations, eauimolar and in excess to the protease, in order to obtain an indication of the tightness of the complex. […] Importantly, this class of inhibitors was capable of inhibiting nearly all general cysteine protease activity. The equistatin peptide molecule and a functional derivative thereof were not very active against the aminopeptidase-like cysteine protease activity. […] The best combination of inhibitors for full toxicity against the Colorado potato beetle would therefore be a combination of equistatin or p41 invariant chain fragment and stefin-like inhibitors.

[12] = system: tri-peptidil-peptidase and endoprotease activity of Colorado potato beetle larval gut extracts; assay: Tri-peptidil-peptidase and endoprotease activity of Colorado potato beetle gut extract, pGlu-Phe-Leu-pNA; type: biochemical, Leptinotarsa decemlineata
Excerpt: as §4

[13] = system: endoprotease activity of Colorado potato beetle larval gut extracts; assay: Broad spectrum endoprotease activity of Colorado potato beetle gut extract, Z-Phe-Arg-pNA; type: biochemical, Leptinotarsa decemlineata
Excerpt: as §4

[14] = system: Colorado potato beetle larval gut extracts (potato protease inhibitor-insensitive cysteine proteases); assay: General proteolytic activity of Colorado potato beetle larval gut extracts, azocasein; type: biochemical, Leptinotarsa decemlineata
Excerpt: as §4

[15] = system: amino-peptidase activity of Colorado potato beetle larval gut extracts; assay: Amino-peptidase activity of Colorado potato beetle gut extract, L-Arg-pNA; type: biochemical, Leptinotarsa decemlineata
Excerpt: as §4

In the case of bean cystatin, the residual protease activity (FITC-hemoglobin), pH 3.5 (% residual activity) [1] is reported as 14.

In the case of β-trypsin, the “limited proteolysis, reverse-phase HPLC and N-terminal sequencing” value [2] is reported as “equistatin was found to be a good substrate for trypsin”.

With “p41 invariant chain fragment (from UniProt P04233 194-258)” the residual protease activity (FITC-hemoglobin), pH 3.5 (% residual activity) [3] was 43, the residual protease activity (FITC-hemoglobin), pH 3.5 (% residual activity) [1] was 13 and the residual amino-peptidase activity (L-Arg-pNA), equimolar inhibitor (% of residual activity) [4] was 85. For the same molecule, the residual amino-peptidase activity (L-Arg-pNA), excess inhibitor (% of residual activity) [4] was 75, the residual broad spectrum endoprotease activity (Z-Phe-Arg-pNA), equimolar inhibitor (% of residual activity) [4] was 30 and the residual broad spectrum endoprotease activity (Z-Phe-Arg-pNA), excess inhibitor (% of residual activity) [4] was 20. For the same molecule, the residual general proteolytic activity (azocasein) in excess of inhibitor (% residual activity) [4] was 10, the residual narrow spectrum endoprotease activity (Z-Arg-Arg-pNA), equimolar inhibitor (% of residual activity) [4] was 20 and the residual narrow spectrum endoprotease activity (Z-Arg-Arg-pNA), excess inhibitor (% of residual activity) [4] was -5. For the same molecule, the residual tri-peptidil-peptidase and endoprotease activity (pGlu-Phe-Leu-pNA), equimolar inhibitor (% of residual activity) [4] was 10 and the residual tri-peptidil-peptidase and endoprotease activity (pGlu-Phe-Leu-pNA), excess inhibitor (% of residual activity) [4] was -5.

`CC(C)CC(=O)N[C@H](C(=O)N[C@H](C(=O)N[C@@H](CC(C)C)[C@@H](O)CC(=O)N[C@@H](C)C(=O)N[C@@H](CC(C)C)[C@@H](O)CC(=O)O)C(C)C)C(C)C` [Pepstatin, reference compound] (Isovaleryl-VV[Sta]A[Sta]-OH) showed a residual protease activity (leafminer proteases) of 46%, a residual protease activity ([5]; western corn rootworm pH 3) of 45% and a residual protease activity ([5]; western corn rootworm pH 6.5) of 58%. For the same molecule, the “inhibition of total protease activity” value ([6]; Colorado potato beetle, pH3) was 82%, the residual protease activity ([6]; colorado potato beetle pH 3, recombinant equistatin) was 18% and the residual protease activity (thrips protease activity; thrips pH 3.5, equistatin purified from sea anemone) was 84%. For the same molecule, the “inhibition of protease activity” value (thrips protease activity; thrips, pH 3.5) was 16%.

In the case of “thyroglobulin: protein containing type I repeated thyroglobulin domains [reference compound]”, the “inhibition of cysteine proteases” value (cysteine proteases) is given as “do not inhibit”.

B1: combined second and third domain of equistatin (eq d-2,3) (protein)
chain: AALTLCGMMGAIIVAVPGTCGPPSCLAAGSPAGVGCCASAGGCTCVALLGLGLGGTAGGGAPTCGAHLSGCGGAAILAHSASLAVGMPVPGCLGAGSTAPVGCTPSTGTCTCVAGGGVLVPGSAVAPLAPTC
With B1 the Ki (cathepsin D [7]) was 0.0004 µM, the Ki (papain [8]) was over 1 µM and the Ki (cathepsin D [9]) was over 0.0006 µM.

B2: first domain of equistatin (eq d-1) (protein)
chain: SLTLCGGLGASAASGLIGTTVPGCLGTGGPGGLGCTGSTGTCTCVAGAGLGILGTLIAGSPACSAAL
B2 gave a Ki (cathepsin D [7]) of over 1 µM, a Ki (papain [10]) of 0.00061 µM and a koff (papain [8]) of 0.0011 s⁻¹. The kon (papain [8]) was 1.8e+06 M⁻¹ s⁻¹ and the Ki (cathepsin D [9]) was 1000 µM.

B3: entactin: protein with domains homologous to type I repeated thyroglobulin domains (protein, UniProt P14543 29-1247, looked up)
Nidogen-1: LSRQELFPFGPGQGDLELEDGDDFVSPALELSGALRFYDRSDIDAVYVTTNGIIATSEPPAKESHPGLFPPTFGAVAPFLADLDTTDGLGKVYYREDLSPSITQRAAECVHRGFPEISFQPSSAVVVTWESVAPYQGPSRDPDQKGKRNTFQAVLASSDSSSYAIFLYPEDGLQFHTTFSKKENNQVPAVVAFSQGSVGFLWKSNGAYNIFANDRESVENLAKSSNSGQQGVWVFEIGSPATTNGVVPADVILGTEDGAEYDDEDEDYDLATTRLGLEDVGTTPFSYKALRRGGADTYSVPSVLSPRRAATERPLGPPTERTRSFQLAVETFHQQHPQVIDVDEVEETGVVFSYNTDSRQTCANNRHQCSVHAECRDYATGFCCSCVAGYTGNGRQCVAEGSPQRVNGKVKGRIFVGSSQVPIVFENTDLHSYVVMNHGRSYTAISTIPETVGYSLLPLAPVGGIIGWMFAVEQDGFKNGFSITGGEFTRQAEVTFVGHPGNLVIKQRFSGIDEHGHLTIDTELEGRVPQIPFGSSVHIEPYTELYHYSTSVITSSSTREYTVTEPERDGASPSRIYTYQWRQTITFQECVHDDSRPALPSTQQLSVDSVFVLYNQEEKILRYALSNSIGPVREGSPDALQNPCYIGTHGCDTNAACRPGPRTQFTCECSIGFRGDGRTCYDIDECSEQPSVCGSHTICNNHPGTFRCECVEGYQFSDEGTCVAVVDQRPINYCETGLHNCDIPQRAQCIYTGGSSYTCSCLPGFSGDGQACQDVDECQPSRCHPDAFCYNTPGSFTCQCKPGYQGDGFRCVPGEVEKTRCQHEREHILGAAGATDPQRPIPPGLFVPECDAHGHYAPTQCHGSTGYCWCVDRDGREVEGTRTRPGMTPPCLSTVAPPIHQGPAVPTAVIPLPPGTHLLFAQTGKIERLPLEGNTMRKTEAKAFLHVPAKVIIGLAFDCVDKMVYWTDITEPSIGRASLHGGEPTTIIRQDLGSPEGIAVDHLGRNIFWTDSNLDRIEVAKLDGTQRRVLFETDLVNPRGIVTDSVRGNLYWTDWNRDNPKIETSYMDGTNRRILVQDDLGLPNGLTFDAFSSQLCWVDAGTNRAECLNPSQPSRRKALEGLQYPFAVTSYGKNLYFTDWKMNSVVALDLAISKETDAFQPHKQTRLYGITTALSQCPQGHNYCSVNNGGCTHLCLATPGSRTCRCPDNTLGVDCIEQK
In the case of B3, the “inhibition of cysteine proteases” value (cysteine proteases) is given as “do not inhibit”.

B4: human stefin A: Type I cystatin (protein, UniProt P01040 1-98, looked up)
Cystatin-A: MIPGGLSEAKPATPEIQEIVDKVKPQLEEKTNETYGKLEAVQYKTQVVAGTNYYIKVRAGDNKYMHLKVFKSLPGQNEDLVLTGYQVDKNKDDELTGF
For B4, the “% of residual activity, excess inhibitor” value [11] was 90%, the “% of residual activity, equimolar” value ([12]; equimolar) was 95% and the “% of residual activity, excess inhibitor” value ([12]; excess inhibitor) was 90%. For the same molecule, the “% of residual activity, equimolar” value ([13]; equimolar) was 95%, the “% of residual activity, excess inhibitor” value ([13]; excess inhibitor) was 80% and the “Residual activity in excess of inhibitor” value [14] was 90%. The “% of residual activity, equimolar” value ([15]; equimolar) was 60% and the “% of residual activity, excess inhibitor” value ([15]; excess inhibitor) was 10%.
